Experimental findings from publication PMC11648230 (2024) are described below.

This experiment deals with Aquifex aeolicus TsaD2B^mut2 tetramer (Aquifex aeolicus | Thermotoga maritima, UniProt O66986 1-335). As to the kind of experiment: ITC. In general terms: Isothermal titration calorimetry measures the heat released or taken up as one component is titrated into another.

Usually Kd stands for the equilibrium constant for the complex coming apart.

Sequence of Aquifex aeolicus TsaD2B^mut2 tetramer (O66986 whole entry, chain 1 of 2): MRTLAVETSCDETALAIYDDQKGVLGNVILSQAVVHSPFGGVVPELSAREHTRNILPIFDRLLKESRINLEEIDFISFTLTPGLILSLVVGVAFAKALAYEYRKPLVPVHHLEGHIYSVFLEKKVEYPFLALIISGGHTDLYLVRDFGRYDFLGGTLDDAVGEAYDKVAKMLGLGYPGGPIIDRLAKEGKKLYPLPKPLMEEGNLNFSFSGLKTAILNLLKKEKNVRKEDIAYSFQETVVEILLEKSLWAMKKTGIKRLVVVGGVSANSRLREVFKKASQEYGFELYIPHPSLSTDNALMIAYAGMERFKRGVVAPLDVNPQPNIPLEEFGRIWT
Sequence of Aquifex aeolicus TsaD2B^mut2 tetramer (chain, as listed by the source, chain 2 of 2): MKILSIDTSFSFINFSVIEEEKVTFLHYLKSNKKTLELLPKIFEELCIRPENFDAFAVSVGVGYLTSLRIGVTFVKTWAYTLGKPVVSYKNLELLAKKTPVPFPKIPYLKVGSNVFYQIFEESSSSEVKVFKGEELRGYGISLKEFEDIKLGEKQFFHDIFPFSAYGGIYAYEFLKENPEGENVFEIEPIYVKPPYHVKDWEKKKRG

B1: Aquifex aeolicus TsaE (enzyme)
chain: MELLKEVILESEEDTYKLAEEIAQLLKGSEVICLRGTLGAGKTTFVKALAKALKVKNPSAVRSPTFTLVNEYETDKGKLIHIDLYRVPDFDYSEFIGEGILAVEWEERDKPCDIILEIEILDENKRKVRIYRK
modifications: T. maritima TsaB C-tail WEKKKRG (200-206) grafted after residue 200 of A. aeolicus TsaB (new positions 201-207); C-terminal 6His tag on TsaB omitted; TsaD carries a bound divalent metal (Fe2+ or Zn2+); Cys10 of TsaD seen oxidised (CSO) in the crystal; ITC with TsaE done with AMPPNP/Mg2+
The molecule B1 had a Kd of 2870 nM.
